Data from the domain aggregation screens of Martell et al. (2025).

Test: soluble fraction after stress (log2 fold change); higher = more stays soluble; pooled small domains, quantitative proteomics
Settings: stress: pH 4
Procedure, shortened: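 Pooled custom libraries of small protein domains were stressed at pH 4 and then measured by high-throughput quantitative proteomics. The fold change in the amount of each domain that stays soluble after the acid stress serves as a measure of aggregation propensity. Fold changes are given on a log2 scale, and higher values mean more of the domain stayed soluble.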

Row | Sequence | soluble fraction (log2)
1 | HMTLGEHILQYRTARGWSQEDLANALEVSRQSVSKWETDASTPELDKIVRLSEIFQVSIDELVTGKA | 0.0683
2 | HMTLGENLQNLRKEAGLSQEQVAQQLFVSRQTVSKWENNLAEPGVENLKALARLYGVTLDRLVGM | -0.323
3 | HMTLKVQLSEISKMVSLSYIAKKYFNKSQSWLSQRINGNTIHNKPAKFTSEELATLQFALKDIGNILNSTV | -0.658
4 | HMTLLVPASKEAILGGLAKIDALKVILKPEKDYSKTHAMTIGTKDEVIAKLDSFLSGMDSEKNQVLIQEYM | -0.135
5 | HMTLSDIGHAVRTRRTELGLSQVQLARLSGLSRQTLVGLENGTLNDLGINRVAQLLAVLGLDAP | -0.203
6 | HMTLSHAINRLRLNANMSQEQFAGLFHVSQQSVQKWESGDSVPELSKLIAIAKHFGISLDALILGN | 0.0336
7 | HMTLTEQQITDNYKELRKIINDTFSGLRLDKLNHMYDDLEDRMVVAPASSVEHYHNSKVGGYVEHILHVI | -0.132
8 | HMTLTIEDGYVNAKLKTTVEGLAEDSTIKVDSIEYTNAGKNDILTVFVEDKPYRVEKYKINIAPEDS | -1.12
9 | HMTLVSALDQKTKDSAYYRGTYLAGKISAGKMTKQEAVADIMKNYDGNTAAMKVAAEKAGVSDLLSQTVL | 0.0773
10 | HMTMKQVFIETDANVNQKIMLNEKEAHHLFDVLRTSDKETIRVVTNTSQVFLARVQQKPYIYLFDKMTVE | -1.76
11 | HMTMNYFIIENNQQVGPLTLEQLVARNITSDTLVWKEGMEDWQPAWKVDELHTVLDQIRANAEQ | -1.19
12 | HMTMVVIMNADATQADIEGVISAIEEKGLEAKVMEGAHQKIVGVIGDKTKLAATPLDAMHGVETTVAIS | 0.131
13 | HMTNATVGQIKKLARASILYGNSNLSGNRYTYKANTTVTILQNISSNVDKIRVNVTGRVAYIDNSNYSSST | 0.34
14 | HMTNEQLSKAKSWVQIAVYAAEKLYGAGNGDQKLVYAEEILRKHGIRLDTATLKAMIDAQIKEMEN | 0.131
15 | HMTNEWRKILSNLNGKYQIVMELFYVDGFSTKEIARMLHITEVNVRSRMVRGRKQLEQILTVR | 0.0998
16 | HMTNPPITTEARNLVVEQLKELNALHPEKARELADSYKKEFNVPKVIGHITEARHGEFLALAISKIDES | -0.399
17 | HMTNPPTPADTLFNTVRGVLQSILKSPMKDTEVASALNVSKAQARSWLQRLSDEGLIEKRKNPTAYVL | -0.321
18 | HMTNTYEVIKNDIIFGVLPPLKKLKLLELKKKYITSVSTLREILSRLSGDGFVVSKEQKGFYVSAV | -0.22
19 | HMTNVNSLIGKKAIVIQDIDNLKSTGQVKIGGEIWSAQSESNDIISKDTEVEIVKIDGVKLIVRLVPV | 0.225
20 | HMTNYNTEKIIPEEQAGKRLDVVLANIFPEFSRSRLKNWIIDGFILVDGKVLRPRDFVTGGELVSIDVIV | -0.356
21 | HMTPADEAGNDLDIGQTVKILRRVSEGQYEVSYRGTTWQARALNAQAAVEPSFAVIGGKEGNILLVHL | -0.115
22 | HMTPDVAEFRERLRQILPGEQIEVRTANDGIVLSGTVSSIARLDAALQLAERYAPSRVSNLMSVG | 0.399
23 | HMTPEPVREALTFQEGRVFALAAKNMTNAEIAQSLSLKLKTVENYMSIIYQKLALKNRYELLVYARKSGV | -0.117

Row | Sequence | soluble fraction (log2)
24 | HMTPESSLHSGLGKILHDALTAKIQLTNFEAKFLSDMQSKYDLNGSFSWLSSKQQTTLEKILAKYGR | 0.0478
25 | HMTPFLVRVDISDLNIRTGAGTNYSRTGQYTGKGIFTILEVKSGQGSDAGWGRLKSGAGWISLDYTTR | 0.275
26 | HMTPIELIEKTIELIENERKVQKLQQKELALKADIPFPTYKDFIYKKRASLENILKLFIALRLF | -0.88
27 | HMTPKVAVPSFVGWKFEDVERQLGTMGLIRGKVDNHPSEEYSEGRVIWQSVLGEVEKGKVIDFWVSTGPE | -0.776
28 | HMTPNATWQDDAQSLLRDLIQHQPVLIQISAAKRLRDQAEQISRITGGDTVTRDHVEAAGHALGMGVT | -0.39
29 | HMTPPLSKIRNMTPDQQRSSVIEARKKGYNLLQLEGLAKAQGATPADLLVLRNAWAQSEFDQKR | 0.331
30 | HMTPQVALNDTETAIYEKMKQEKQMLLGELRAQFDISNKLWDTSLKTLTKNQLLAVSKEDDLLFVKL | -0.437
31 | HMTPQVTVPDVTGQSFASAKQVLESLGLTVKQQGSTGENDKVIGQNPTSGNADKGATITLTTQDS | -0.154
32 | HMTPSTVQVHVAGAVKNPGVYVLLENARNIDAITAAGGATSEADLERINLSEFIRDGQRVYVPYKGDPI | 0.0384
33 | HMTPTITNALEEAEKAVSEVQEGKKEIELTPQGAYIRHLQHAIADRYGISSTSTGRDPKRKVIIY | -0.437
34 | HMTPTNILIVEDEKEIRRFVRTALESEGLRVFESETLQRGLIEAGTRKPDLIILDLGLPDGDGLSYIRDLR | -0.662
35 | HMTPTRQATVSVAALNVREQPSLQGRRLGKLTQGTTLTVVGPPGEWLKIEYKGETGFVYASYTSLG | -0.0723
36 | HMTPTVEAAKEEVLRVLASAAPRGLTRTELEAEVSFRRTKLRDTLVELERIGRIDSVGRRGNATTYRLIG | -0.0736
37 | HMTPVEVNARGVHVDFSKGGILLEDVVRHLILEALRASEWKRGPAAQLLGISKETLRYRMEKYRLYPP | -0.706
38 | HMTPYEVLVYESLKQKILSGGYAAGEKIPEQSVSEELGVSRSPLRSAIRRLASEGLIEYYPYRGAFVKA | -0.751
39 | HMTQEAMRSLRKSLQNLSSRQQVIFMLRHYEGLALKEIAEHLGLETGTVKAHLHRAVTQLRKDLVE | -0.112
40 | HMTQHDIVPLMLKMVDVLTQFVELDIPFLQQERQTRLAALNAMMGRADVSLAEKYRRIMEAYQVETEYG | -0.254
41 | HMTQLEVDLFERLITISGVGPRLALAVLSGLEPPDLLRAIQDSDIVRLQGIPGVGKKTAERISLELKDKLS | -0.854
42 | HMTQQYVEWKVYNVTTIKNKYGFRVKLIFQDGSDATQQKGGFTSKKAAEQARTEVIGQLYSNTYVVY | ≥ 0.43
43 | HMTQSGLTQWEFNMLRQALIEMLGEKPGSVFELARLLPLEQEKNVQALRFLLDHDDQFHLKDEYISFVKRT | -1.82
44 | HMTQTAVFSKGEQEYYFPLSKVLFFETDGNTINVHTADDIYETRYRLYELEEMLPGSFMRISKSAVVNTNR | -0.161
45 | HMTRAEVQALLEKQAKDFEVEVVHRGWKKTVQTPEFAGWYSQQPAEIKALAESDDPAVAIRMLDLFSGTK | -0.644
46 | HMTRETTQAWWEARQTLPSGEQRSAASLSQEASHVRRFYRWAMQQGLTDRNPADWLPDVRQK | -0.062

Row | Sequence | soluble fraction (log2)
47 | HMTRIHEEVVNQVHDLVKEGRFKAGDQLPSERELAEIFKVSRTSVREALRALETQGLIISRTGMGNFIAD | -0.472
48 | HMTRILTEDDIVNFLIRQPDTAYIIAKSFNENERKVKELLDLLIKKNKVREEIVNGVVSYAVN | -0.208
49 | HMTRKQTIYEFLRRMKSQHGLDAVYSTEEIANAVGVSRANVSSDLNRLFEEQLVEKLPGWPVKYRA | 0.128
50 | HMTRNEFMTALRKRLSHLPAEEQDAALKYYEEYFDEAESEEEAARQLGSPDAIADRILADYGAG | -0.261
51 | HMTRPLVILEDVKFPSYNEIVSLTLPDGTRRGGQVLEVSGNKAIVQVFEGTSGIDVKDTHIELTKSS | 0.0449
52 | HMTRQEFIRKLQEALNGKLDAATIQDHLKFYDDYIIEEMRKGKSEQEVLELLGDPWAIAKTIVDAS | -0.44
53 | HMTRQKEAILALLTDSRGEALSASELLARLTRSGSSIGRTTVYRLLSQLVDDGVVRAWRDASRGITLYELS | -0.44
54 | HMTRQPSAKEHAVLTAVKEGLRRDGRAPTVRALADMTGAASTSTVQRRISALIDLGLLRRTDGTLEVVE | 0.202
55 | HMTRRVIRAPAAGIMRSNVKLGDLVKEGDVIAWIGEHEIKAPLTGMVRGLLNDGLAVVGGFKIGDI | 0.157
56 | HMTSEPFYNPRRPQPYWTSETDRHTTYADAVRALAREFSETPEWVESNMGETNDLQEIRRNLSRVKSG | -0.108
57 | HMTSESWAEKSRSLAAAGLIVMGRDAQLKIEGLTNLDPLIEAATASSTRLLTGQTIDELLTIVP | -0.627
58 | HMTSEVLTNATIVKMVKAKLSDDIIIDEINNARVNFDVSPEGIKSLTAQNVTEPVIETMKKAVAAQESI | 0.428
59 | HMTSFDVMLKSAGANKLAVVKLVKELTGLGLKEAKDIVDAAPSKVKEGVSKEEAEELQKQLTGAGAEVEL | 0.309
60 | HMTSHYTVLGVKETDTIEMIRTHYRKLILQFHPDKNQHLTEEERKKLEVKVLQIREAYEKIKKEK | -0.816
61 | HMTSIISLAKARSIALQKVPGATSKNIHLSLDDEDDKQVYEGEIKYKQMEYVFEIDAKTGTFLKWTSERD | 0.185
62 | HMTSKTLSAVEGEGLRLDKFLSNQLPELSRTKIQKMINDGLVFVNNTEAKASLILDGSEFIAYTVPD | -0.0789
63 | HMTSLAEQAYRHIRDKLSNGAFVPGEQLVNRVLATEIGVSVIPVREAINRLATEGLVKHVPGSGAFVRQ | 0.197
64 | HMTSLYDILGIAKTADSQTIKTAFKKKALLYHPDKNNGNLKKEEIFKKISTAYQILSDPKSRANYDLSIA | 0.22
65 | HMTSMNNTEELIDMANKIIDNNPNMVLKYKEGRNVLDFFIGQVMKETKGRANPSATSKIFKDLLEK | 0.171
66 | HMTSNKTVPYSELKGLISTGKIEYVGIGNTQIRAVSKSGAGIVTYTARRVIPDDTLIPELEKNGIAYGGI | 0.112
67 | HMTSNSLNLKDEISAFLTKNAGISYSAERIAHALNMDNADQFTPIIQTLAQLEREKKVRVTDKGEFEAVIK | 0.229
68 | HMTSSKISFIDPVNGGKVSVSLENSTLEKLQNRFGVNSVVRNEAGDVELKDKAQEFVAGWFADIAYTRG | -0.89
